Measured values published in the supplement of paper PMC10567573.
± gives the standard deviation.

Test: protein stability index of a GFP-peptide fusion (GPS, HEK-293T) (PSI 1-6); higher = more stable
Conditions: c terminus: a fixed tail appended
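Further: 24-mer peptide tiles fused after GFP, lentivirally expressed, FACS-sorted into six equal bins by GFP/DsRed ratio, decoded by Illumina sequencing, PSI is the read-weighted mean bin number.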

Row | Sequence | protein stability index (treatment: DMSO) | protein stability index (treatment: MLN4924 1 uM, 8 h)
1 | LYILGNFMQLKCFSSQKLKCLSMF [PNLIPRP1] | 3.67 ± 0.66 | 3.46 ± 0.73
2 | LYYYMTQTEELKYSIDQEFLKEYF [NLN] | 2.74 ± 0.85 | 2.39 ± 0.62
3 | MCNVKAPLGSPSPRPRRAKRFASL [ADAMTS4] | 3.69 ± 0.26 | 3.77 ± 0.21
4 | MDGESEEEQESVDTGEEEEGGDES [EHMT1] | 5.66 ± 0.15 | 5.51 ± 0.16
5 | MDVSREEAPQWLESDSCQKCEQPF [WDFY1] | 4.89 ± 0.17 | 4.92 ± 0.32
6 | MGGHHPGADYPVDGLPDLGHAQDL [CTNNB1] | 5.03 ± 0.25 | 5.03 ± 0.3
7 | MGPAQEAPVAEAWIPQAGPPELNY [ZNF449] | 4.46 ± 0.27 | 4.51 ± 0.17
8 | MHVACQHGQENIVRILLRRGVDVS [RIPK4] | 2.29 ± 0.32 | 2.24 ± 0.45
9 | MLEKMDLKEFDLDALLGIDDLETM [ATF4] | 3.85 ± 0.14 | 3.87 ± 0.26
10 | MLGLALGGLVVSAASLAGCLGALC [TSPAN10] | 3.15 ± 0.55 | 3.04 ± 0.37
11 | MLIFSLALEEPEKMGLQERSETFL [DNAAF3] | 2.18 ± 0.32 | 2.38 ± 0.12
12 | MMELGSRSRGASQKKQKLEQKAAG [FATE1] | 4.76 ± 0.19 | 4.87 ± 0.49
13 | MNLHVYISEHEHFTDFNATSALFW [CLPTM1] | 2.94 ± 0.5 | 2.79 ± 0.39
14 | MRPWTGSWRWIMLILFAWGTLLFY [FUT8] | 3.24 ± 0.16 | 3 ± 0.092
15 | MVEADHPGKLFIGGLNRETNEKML [RBMY1A1] | 3.91 ± 0.23 | 3.92 ± 0.093
16 | MVKIFRLLPTKSLVALKCTCCYFK [FBXO34] | 3.18 ± 0.48 | 2.71 ± 0.69
17 | NALTLTFQRAMHDYNQAEMKQRDN [STX11] | 3.54 ± 0.15 | 3.68 ± 0.12
18 | NCEQLCVNVPGSFVCQCYSGYALA [MATN2] | 2.16 ± 0.55 | 2.34 ± 0.53
19 | NESTVCLMSYERRQILHLITMMAL [TENT5D] | 2.3 ± 0.47 | 2.1 ± 0.2
20 | NFADEDEAQAFRALVQEKIQKRNQ [WAS] | 4.55 ± 0.29 | 4.62 ± 0.3
21 | NFCEPQDYRPMNHEAFKDELKTFR [CDC25B] | 4.04 ± 0.085 | 4.15 ± 0.25
22 | NFIREQDLYALKSVKIPVRNHGIL [LYSMD4] | 2.27 ± 0.076 | 2.35 ± 0.37
23 | NFYYFSLIPKTWYSAEQFCVSRNS [CD207] | 2.6 ± 0.53 | 2.3 ± 0.45

Row | Sequence | protein stability index (treatment: DMSO) | protein stability index (treatment: MLN4924 1 uM, 8 h)
24 | NGLNARMMHGGSYSLTTSSTHKRS [RAB40B] | 4.28 ± 0.12 | 4.34 ± 0.19
25 | NGPDCGYGSFHQQYWLDGKIIAVG [ATE1] | 2.35 ± 0.42 | 2.26 ± 0.26
26 | NGVLLCFYSQEWYARQHCPLKNPT [SOAT1] | 2.81 ± 0.31 | 2.6 ± 0.57
27 | NHLLHHFVIGHLKGAPASWWNHMH [FADS1] | 2.36 ± 0.56 | 2.31 ± 0.34
28 | NIGDSSSGLIQTVFISSYMVLAPV [SPNS1] | 3.12 ± 0.32 | 2.67 ± 0.38
29 | NKQGHGCESDIWALGCVMYTMLLG [PLK2] | 2.87 ± 0.58 | 2.54 ± 0.064
30 | NLDEEMKKIRQVIRKYNYVAMDTE [CNOT7] | 3.47 ± 0.14 | 3.38 ± 0.22
31 | NLFFAWIKIFKYISFNKTMTQLSS [PKD2L1] | 3.05 ± 0.49 | 2.99 ± 0.44
32 | NPEEIRGGGLLKYSNLLVRDFRPT [TENT5C] | 3.04 ± 0.3 | 3.14 ± 0.31
33 | NPFAKGFRENGRNCKRERDARVKR [TBX6] | 4.1 ± 0.24 | 4.09 ± 0.36
34 | NPFYHCLVAEILPAPGKLLGPCVV [SAT2] | 3.16 ± 0.97 | 3.07 ± 1.2
35 | NPQENRWHTIAPMGTRRKHLGCAV [KLHL20] | 3.1 ± 0.13 | 3.11 ± 0.095
36 | NQKLFDLRGKFKRPPLRRVRMSAD [TNNI2] | 3.17 ± 0.21 | 3.51 ± 0.26
37 | NQRAMDLYKALGAQDLTEAEGWHF [SAT2] | 3.28 ± 0.25 | 3.14 ± 0.28
38 | NSAAHLFGYRPYDKNISPRENILV [SCD] | 2.22 ± 0.38 | 2.57 ± 0.26
39 | NSFRLLFDVVVILTCSLSFLLCAR [MCOLN1] | 3.21 ± 0.17 | 3.24 ± 0.24
40 | NTGYRLQNNENNISCVERGWSTPP [CFHR2] | 3.67 ± 0.19 | 3.66 ± 0.22
41 | NTLVCNGLQNCVYPWDENHCKEKR [NETO1] | 4.21 ± 0.25 | 4.26 ± 0.3
42 | NTNPKEVQEMRNKIREQNLQDIKT [ADD1] | 4.98 ± 0.18 | 5.11 ± 0.13
43 | NVGGALYYTTMQTLTKQDTMLKAM [KCTD10] | 2.6 ± 0.35 | 2.38 ± 0.54
44 | NVKTLKDGKPFPELVLEQQLDREA [PCDHGC5] | 5.07 ± 0.33 | 5.02 ± 0.13
45 | NVNSNLITWNRVVLLHGPPGTGKT [TRIP13] | 2.45 ± 0.21 | 2.53 ± 0.14
